Test results taken from patent US20230059341A1.

Target: Neonatal Fc Receptor (FcRn) (UniProt P55899)
Experiment: FcRn binding assay, BIACORE (SPR)

Sequence of Neonatal Fc Receptor (FcRn) (P55899 24-297 limits assumed, chain 1 of 2): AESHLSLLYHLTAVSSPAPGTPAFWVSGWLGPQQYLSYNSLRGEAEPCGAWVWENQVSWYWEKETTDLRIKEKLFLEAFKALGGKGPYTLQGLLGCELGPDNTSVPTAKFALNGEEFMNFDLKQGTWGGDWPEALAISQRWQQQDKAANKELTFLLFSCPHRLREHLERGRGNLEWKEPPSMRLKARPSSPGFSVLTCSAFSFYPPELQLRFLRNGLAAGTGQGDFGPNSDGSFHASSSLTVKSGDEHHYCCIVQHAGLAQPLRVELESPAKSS
Sequence of Neonatal Fc Receptor (FcRn) (P61769 21-119 limits assumed, chain 2 of 2, further chain): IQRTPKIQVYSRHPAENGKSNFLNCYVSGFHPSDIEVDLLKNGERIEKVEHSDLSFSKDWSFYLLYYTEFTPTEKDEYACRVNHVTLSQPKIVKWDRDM

Dostarlimab, base degraded, pH 9.0, 40° C., 1 week (antibody)
Kd: 2340 nM
